{"source": "patent US10065989B2", "about": "“Molecular sleds and uses thereof” (The Broad Institute, Inc., priority 2012, dated 2018)", "molecules": {"B1": {"name": "precursor to adenovirus protein VI, pVI (other)", "chain": "MEDINFASLAPRHGSRPFMGNWQDIGTSNMSGGAFSWGSLWSGIKNFGSTIKNYGSKAWNSSTGQMLRDKLKEQNFQQKVVDGLASGISGVVDLANQAVQNKINSKLDPRPPVEEPPPAVETVSPEGRGEKRPRPDREETLVTQIDEPPSYEEALKQGLPTTRPIAPMATGVLGQHTPVTLDLPPPADTQQKPVLPGPSAVVVTRPSRASLRRAASGPRSMRPVASGNWQSTLNSIVGLGVQSLKRRRCF", "notes": "range 1-250; also called Cy3B-pVI; adenovirus precursor protein pVI"}}, "key": {"lambda DNA": {"test_system": "lambda DNA", "assay": "Single-molecule DNA sliding assay on flow-stretched DNA (TIRF microscopy)", "parameters": "species or system bacteriophage lambda; one-dimensional diffusion constant: unit not given here", "conditions": "for One-Dimensional Diffusion Constant (mean D1 ± SEM): lambda DNA, low salt 2-6 mM NaCl", "source_text": "To determine whether AVP-pVIc complexes slide on DNA, Applicants used single-molecule fluorescence microscopy (FIG. 10C) with flow-stretched DNA, (FIG. 10D,E) (Kabata, H. et al. Visualization of single molecules of RNA polymerase sliding along DNA. Science 262, 1561-3 (1993); Harada, Y. et al. Single-molecule imaging of RNA polymerase-DNA interactions in real time. Biophys. J. 76, 709-715 (1999) and Blainey, P. C., van Oijen, A. M., Banerjee, A., Verdine, G. L. & Xie, X. S. A base-excision DNA-repair protein finds intrahelical lesion bases by fast sliding in contact with DNA. Proc Natl Acad Sci USA 103, 5752-7 (2006)). […] Biochemistry 40, 13237-13245 (2001)), and furthermore to diffuse rapidly over tens of thousands of base pairs before dissociating from the DNA. For example, the molecule whose motion is shown in the raw image data in FIG. 12A traveled more than 20,000 base pairs during a 0.9 sec binding event. Despite the optical resolution limit imposed by diffraction, the centroid position of each signal in each frame was determined with 11 nm spatial precision at 3.5 ms time resolution (Gelles, J., Schnapp, B. J. & Sheetz, M. P. Tracking kinesin-driven movements with nanometer-scale precision. Nature 331, 450-3 (1988) and Thompson, R. E., Larson, D. R. & Webb, W. W. Precise nanometer localization analysis for individual fluorescent probes. Biophys J 82, 2775-83 (2002)), FIG. 12B.\nFlow cells containing bacteriophage lambda DNA immobilized at one end were constructed as described previously (Blainey, P. C., van Oijen, A. M., Banerjee, A., Verdine, G. L. & Xie, X. S. A base-excision DNA-repair protein finds intrahelical lesion bases by fast sliding in contact with DNA. Proc Natl Acad Sci USA 103, 5752-7 (2006)). Labeled samples of AVP-pVIc complexes were infused at concentrations of 1-2 nM at rates of 20-50 mL/hour. Flow rates were chosen to drive the longitudinal DNA fluctuation faster than the imaging frame rate (Blainey, P. C., van Oijen, A. M., Banerjee, A., Verdine, G. L. & Xie, X. S. A base-excision DNA-repair protein finds intrahelical lesion bases by fast sliding in contact with DNA. Proc Natl Acad Sci USA 103, 5752-7 (2006)). The assay buffers consisted of 10 mM MES (pH 6.5), 2-25 mM NaCl, 50 μM EDTA, 20 mM ethanol, 5 percent glycerol, and, where indicated in the text, reducing agent (DTT and mercaptoethanol gave equivalent results). “Low salt” measurements were conducted with 2-6 mM NaCl; “high salt” measurements were conducted with 20-25 mM NaCl.\nDue to the speed and duration of sliding by AVP-pVIc complexes, these events were readily identifiable manually. All AVP-pVIc complex DNA-binding events noted were included in the analyses. Once events had been identified, signals were tracked using Gaussian centroid determination in the Matlab environment. Molecular trajectories were analyzed in Matlab by methods similar to those previously published (Blainey, P. C., van Oijen, A. M., Banerjee, A., Verdine, G. L. & Xie, X. S. A base-excision DNA-repair protein finds intrahelical lesion bases by fast sliding in contact with DNA. Proc Natl Acad Sci USA 103, 5752-7 (2006)).\nA question is does pVIc by itself slide on DNA. To address this possibility, Applicants performed a sliding assay (Blainey et al., 2012, Activated Adenovirus Proteinase Slides Along Viral DNA Via One-Dimensional Diffusion to Locate and Process its Substrate and Blainey et al., 2009, Nonspecifically bound proteins spin while diffusing along DNA. Nat Struct Mol Biol 16, 1224-1229 and Blainey et al., 2006, A base-excision DNA-repair protein finds intrahelical lesion bases by fast sliding in contact with DNA. Proc Natl Acad Sci USA 103, 5752-5757) using pVIc labeled with Cy3B at Cys10′. […] The sliding assay, based upon total internal reflection fluorescence microscopy, used phage λ DNA molecules (48,502 base pairs) attached at one end to a glass cover slip surface by a biotin-streptavidin linkage. The area of the cover slip with DNA was placed within a flow cell. […]"}, "dsDNA [1]": {"target": "dsDNA", "format": "binding"}, "AVP [2]": {"target": "T1, AVP (Human adenovirus C serotype 2, UniProt P03252)", "T1 sequence (P03252 whole entry)": "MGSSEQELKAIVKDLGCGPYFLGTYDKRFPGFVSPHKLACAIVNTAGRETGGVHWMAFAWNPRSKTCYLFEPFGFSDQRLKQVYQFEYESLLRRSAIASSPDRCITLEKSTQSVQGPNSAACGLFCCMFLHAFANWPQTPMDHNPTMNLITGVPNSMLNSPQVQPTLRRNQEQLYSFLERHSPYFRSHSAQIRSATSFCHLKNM", "conditions": "cited from earlier work"}, "[3]": {"test_system": "virion precursor proteins in heat-disrupted Ad2 ts-1 virions", "assay": "Processing of virion precursor proteins in heat-disrupted ts-1 virus", "format": "biochemical"}, "dsDNA [4]": {"target": "dsDNA", "conditions": "12-mer dsDNA, pH 7; McGrath et al. 2001; read-out: KD(app.); cited from earlier work"}, "Ad2 hexon [5]": {"target": "T2, Ad2 hexon (human adenovirus serotype 2 (Ad2), UniProt P03277 2-968)", "T2 construct": "also called hexon trimer; major capsid protein hexon", "T2 sequence (P03277 2-968 limits assumed)": "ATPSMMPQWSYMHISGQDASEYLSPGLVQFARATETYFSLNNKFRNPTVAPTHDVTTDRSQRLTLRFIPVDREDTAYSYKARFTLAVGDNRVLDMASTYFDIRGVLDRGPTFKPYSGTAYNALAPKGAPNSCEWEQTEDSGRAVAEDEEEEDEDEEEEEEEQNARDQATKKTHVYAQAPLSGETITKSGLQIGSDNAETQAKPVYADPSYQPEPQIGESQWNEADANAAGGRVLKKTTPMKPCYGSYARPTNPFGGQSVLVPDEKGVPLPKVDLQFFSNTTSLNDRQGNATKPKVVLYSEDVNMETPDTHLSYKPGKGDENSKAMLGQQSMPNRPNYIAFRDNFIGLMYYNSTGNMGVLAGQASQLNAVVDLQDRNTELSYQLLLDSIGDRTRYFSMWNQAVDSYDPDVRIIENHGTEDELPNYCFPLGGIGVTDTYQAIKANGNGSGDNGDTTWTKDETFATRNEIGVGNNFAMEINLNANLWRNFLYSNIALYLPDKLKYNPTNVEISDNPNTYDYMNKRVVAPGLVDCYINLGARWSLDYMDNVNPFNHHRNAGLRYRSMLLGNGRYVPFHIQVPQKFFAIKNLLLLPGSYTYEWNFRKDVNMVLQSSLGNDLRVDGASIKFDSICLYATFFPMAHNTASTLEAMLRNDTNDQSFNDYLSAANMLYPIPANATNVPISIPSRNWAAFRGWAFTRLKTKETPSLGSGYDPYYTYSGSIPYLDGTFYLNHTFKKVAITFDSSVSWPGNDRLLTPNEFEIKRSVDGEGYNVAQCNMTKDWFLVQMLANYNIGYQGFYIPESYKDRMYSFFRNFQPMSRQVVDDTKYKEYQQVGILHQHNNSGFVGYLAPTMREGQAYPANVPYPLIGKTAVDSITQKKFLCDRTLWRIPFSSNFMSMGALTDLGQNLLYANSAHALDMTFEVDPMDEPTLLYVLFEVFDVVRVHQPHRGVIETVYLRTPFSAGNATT", "assay": "summary sentence of Example 1; fluorescence titration of Cy3B-pVI with hexon"}, "AVP [6]": {"target": "T1, AVP", "procedure": "Assays contained 3.38 μM pVI, 6.54 μM AVP and either 3.38 μM 36 bp dsDNA or no DNA. After the indicated time intervals, aliquots were removed and assayed for enzymatic activity. 100% activity is the enzyme activity of 3.38 μM AVP-pVIc complexes bound to DNA. (∘) plus DNA, (∇) minus DNA. […] After 30 min. at 21° C., the amount of AVP-pVIc formed was assayed. (C) SDS-PAGE (15% polyacrylamide gel) analysis of the reactions in (B) except that the concentrations of pVI, AVP and DNA were 26-fold higher. The DNA concentration in the reactions fractionated on the gel increased from left to right. In B and C, parentheses including the same number indicates the ratio of protein to DNA in B and C is the same.\nAnother question is if DNA is required for the activation of AVP by pVI. Applicants repeated the experiment but in the presence of dsDNA.\nTo see if both enzyme (AVP) and substrate (pVI) must be on the same molecule of DNA for activation to occur or whether they can interact when bound to different DNA molecules, Applicants incubated increasing concentrations of DNA with a mixture of AVP and pVI, each at a concentration such that both should bind to DNA at any DNA concentration. And then Applicants assayed for enzyme activation (FIG. 6B)."}, "[7]": {"assay": "Detergent requirement for solubility, dynamic light scattering", "format": "physicochemical", "source_text": "Briefly, the gene for pVI and an expressible gene of VI were synthesized by PCR and inserted into expression vectors. The vectors for pVI and VI were used to transform Escherichia coli BL21 (DE3) Codon Plus cells. Recombinant proteins were expressed in autoinduction media (Studier, F. W. (2005) Protein Expr. Purif. 41, 207-234). Purification of pVI and VI was accomplished by cation-exchange and size exclusion chromatography. The proteins were about 99% pure. pVI and VI required a detergent to keep them in solution. Below a concentration of DDM of 0.0125%, the proteins were insoluble, as determined by dynamic light scattering."}, "Ad2 hexon [8]": {"target": "T2, Ad2 hexon", "assay": "fluorescence quenching; 1 nM Cy3B-pVI titrated with hexon (monomer concentrations), 20 mM Hepes pH 7, 150 mM NaCl"}, "Ad2 hexon [9]": {"target": "T2, Ad2 hexon", "assay": "fluorescence anisotropy under tight binding conditions; 20 nM Cy3B-pVI titrated with hexon"}}, "note": "Values joined by “and” are separate entries in the source; they are usually repeats but may differ in a detail not shown here. Equal entries are not always repeated. “Also recorded” adds a separate entry of the source. Where two headings read alike, the source gives them in different places."}
{"molecule": "SGPSIVHRKCF [11-Actin-C, last 11 amino acids of β-actin]", "values": [{"measurement": "One-Dimensional Diffusion Constant (mean D1 ± SEM)", "setting": "lambda DNA", "value": "6.40 (bp)^2/s × 10^−6"}]}
{"molecule": "SIVHRKCF [8-Actin-C, 8-amino acid peptide from the C-terminus of β-actin]", "values": [{"measurement": "One-Dimensional Diffusion Constant (mean D1 ± SEM)", "setting": "lambda DNA", "value": "5.45 (bp)^2/s × 10^−6"}, {"measurement": "Kd", "setting": "dsDNA [1]; 12-mer dsDNA, pH 7, Cy3B label on peptide, read-out: Kd(app.)", "value": "5 ± 0.78", "unit": "nM"}]}
{"molecule": "AVP: adenovirus proteinase, a 23 kDa cysteine proteinase", "values": [{"measurement": "increase of relative kcat/Km of AVP", "setting": "AVP [2]; in the presence of DNA", "value": 110, "unit": "fold"}, {"measurement": "increase of relative kcat/Km of AVP", "setting": "AVP [2]; in the presence of pVIc", "value": 1130, "unit": "fold"}, {"measurement": "sliding along DNA (in words)", "setting": "lambda DNA", "value": "does not slide effectively along DNA"}, {"measurement": "processing of precursor proteins after DNase treatment", "setting": "[3]; heat disrupted ts-1 virus incubated with DNase, 2 or 24 hours", "value": "no processing of pVI or the other precursor proteins was observed"}, {"measurement": "time within which all pVI was processed", "setting": "[3]; heat disrupted ts-1 virus, DNA present", "value": "≤ 24", "unit": "hours"}, {"measurement": "Kd", "setting": "dsDNA [4]", "value": "63 nM and 63.1 nM"}]}
{"molecule": "SFRRCGLRQVK [Random peptide, reference compound]", "values": [{"measurement": "cofactor activity in stimulating AVP", "setting": "AVP [2]; up to a concentration of 60 M, Brown and Mangel 2004", "value": "did not act like a cofactor in stimulating AVP"}, {"measurement": "sliding along DNA (in words)", "setting": "lambda DNA", "value": "No Diffusion"}, {"measurement": "sliding along DNA (in words)", "setting": "lambda DNA; listed as SFRRCGLRQVK", "value": "No one-dimensional diffusion of the peptide was observed; also recorded: does not slide along the DNA"}, {"measurement": "Kd", "setting": "dsDNA [1]; 12-mer dsDNA, pH 8, peptide labeled at Cys5′ with Cy3B, read-out: Kd(app.)", "value": "646 ± 75", "unit": "nM"}]}
{"molecule": "B1", "values": [{"measurement": "Kd", "setting": "Ad2 hexon [5]", "value": "1.9 nM and 1.85 nM"}, {"measurement": "rate of AVP activation relative to rate at peak DNA concentration (50 nM)", "setting": "AVP [6]; 77 nM pVI, 130 nM AVP, 320 nM 36-mer dsDNA", "value": 12, "unit": "%"}, {"measurement": "pVI cleaved and used to form active AVP-pVIc complexes", "setting": "AVP [6]; 3.38 μM pVI, 6.54 μM AVP, 3.38 μM 36 bp dsDNA, by one hour", "value": 100, "unit": "%"}, {"measurement": "enzymatic activity after mixing AVP with pVI", "setting": "AVP [6]; no DNA", "value": "no enzymatic activity was detected"}, {"measurement": "time by which all pVI had disappeared (SDS-PAGE)", "setting": "AVP [6]; with AVP and 36 bp dsDNA", "value": "≤ 10", "unit": "minutes"}, {"measurement": "one-dimensional diffusion constant", "setting": "lambda DNA", "value": "1.45×10^6"}, {"measurement": "one-dimensional diffusion constant (mean)", "setting": "lambda DNA; flow-stretched lambda DNA, low salt", "value": "1.45±0.13×10^6 (bp)^2/s and 1.45×10^6 (bp)^2/s"}, {"measurement": "minimum DDM concentration required to remain in solution", "setting": "[7]", "value": 0.0125, "unit": "%"}, {"measurement": "Kd", "setting": "Ad2 hexon [8]", "value": 1.8, "unit": "nM"}, {"measurement": "Kd", "setting": "dsDNA [1]; 12-mer dsDNA, 0.02 M NaCl, read-out: KD", "value": 55, "unit": "nM"}, {"measurement": "Kd", "setting": "dsDNA [1]; 12-mer dsDNA, 0.03 M NaCl, read-out: KD", "value": 155, "unit": "nM"}, {"measurement": "Kd", "setting": "dsDNA [1]; 12-mer dsDNA, 0.04 M NaCl, read-out: KD", "value": 328, "unit": "nM"}, {"measurement": "Kd", "setting": "dsDNA [1]; 12-mer dsDNA, 0.05 M NaCl, read-out: KD", "value": 449, "unit": "nM"}, {"measurement": "Kd", "setting": "dsDNA [1]; 12-mer dsDNA, 0.06 M NaCl, read-out: KD", "value": 1040, "unit": "nM"}, {"measurement": "Kd", "setting": "dsDNA [1]; 33-mer dsDNA, 1 mM MgCl2, buffer B pH 8, 21° C., read-out: KD(app.)", "value": 35, "unit": "nM"}, {"measurement": "stoichiometry of binding of pVI to hexon monomer", "setting": "Ad2 hexon [9]", "value": 1, "unit": "pVI per hexon monomer"}]}
